Data as given in patent EP4703386A1 (Shanghai Sinobay Biotechnology Co., Ltd., dated 2026).

Legend:
[1] = molecular target: T1, CD276 protein on tumor target cells (NCI-H292, SK-OV-3) (human, UniProt Q5ZPR3 29-534); assay: flow cytometry on NCI-H292 cells, IgG-Fc-PE second antibody
T1 construct: whole, on cells; for SK-OV-3 it is implied by the use of CD276-targeted BiTE and CAR; also called B7-H3; CD276-expressing target cells
T1 sequence (looked up): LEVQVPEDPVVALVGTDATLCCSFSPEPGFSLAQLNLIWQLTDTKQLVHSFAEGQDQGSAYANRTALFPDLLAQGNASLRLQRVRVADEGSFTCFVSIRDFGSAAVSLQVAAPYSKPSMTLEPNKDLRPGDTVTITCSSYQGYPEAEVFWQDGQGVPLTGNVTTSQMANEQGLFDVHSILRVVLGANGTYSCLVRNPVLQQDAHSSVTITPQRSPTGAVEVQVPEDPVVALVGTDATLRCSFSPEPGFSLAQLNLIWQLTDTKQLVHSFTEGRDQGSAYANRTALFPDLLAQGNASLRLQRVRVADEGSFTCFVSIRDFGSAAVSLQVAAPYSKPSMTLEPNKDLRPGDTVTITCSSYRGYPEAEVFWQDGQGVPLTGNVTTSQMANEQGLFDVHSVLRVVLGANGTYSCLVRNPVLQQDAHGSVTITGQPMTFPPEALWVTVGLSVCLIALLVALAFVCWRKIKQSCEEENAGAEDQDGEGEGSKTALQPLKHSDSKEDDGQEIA

[2] = molecular target: T1, CD276 protein on tumor target cells …; assay: cell-based or functional assay
[3] = molecular target: T1, CD276 protein on tumor target cells …; assay: flow cytometry on NCI-H292 cell line (Fig. 3)

B1: Hu012-29 (antibody, V domains shown)
VH: EVQLVESGGGLVQPGGSLRLSCAASRNIFRFYTMGWYRQAPEKQRDLVARITSDGTTNYADSVKGRFTISRDNAKNTVYLQMNSLKPEDTAVYYCNTDLPLNTYWAQGTLVTVSS
VL: DIQMTQSPSSLSASVGDRVTITCRASQSISSSLNWYQHKPGKAPKLLIYSASILQSGVPSRFSGSGSGTDYTLTISSLQPEDFATYSCQQSYTTPYTFGLGTKLEIK
notes: Full-length IgG1 (AbVec-hIgG1, AbVec-hIgKappa); also called candidate antibody Hu012-29
B1: binds [1].

B2: Hu012-21 (antibody, IgG1, V domains shown)
VH: EVQLVQSGGGVVQPGRSLRLSCAASGFTFSSYGMHWVRQAPGKGLEWVAVISYDGSNKYYADSVKGRFTISRDNSKDTLYLQMNSLRAEDTAVYYCAKDKLMGWHNYGMDVWGQGTTVTVSS
VL: AIQLTQSPSSLSASVGDRVTITCRASQSINSYLNWYQQKPGKAPKVLIYAASNLQSGVPSRFSGSGSGTDFTLTISSLQPEDFATYYCQQSYSTPPTFGQGTKLEIK
notes: Full-length IgG1 (AbVec-hIgG1, AbVec-hIgKappa); also called candidate antibody Hu012-21
B2: binds [1].

B3: Hu012-1 (antibody, V domains shown)
VH: QVTLKESGGGLVQPGGSLRLSCAASGSIFNMYAMGWYRQAPGKQRELVASITSGGSTHYADSVKGRFTISRDNAKNTMYLQMNSLKPEDTAVYYCRQNDGMDYWGKGTLVTVSS
VL: QAGLTQPPSVSVAPGKTARITCGGNNIGSKSVHWYQQKPGQAPVVVIYDDSDRPSGIPERFSGSNSGNTATLTISRVEAGDEADFYCQVWDSSSDRYVFGTGTKLTVL
notes: Full-length IgG1 (AbVec-hIgG1, GenBank FJ475055.1; AbVec-hIgKappa, GenBank FJ475056.1); also called candidate antibody Hu012-1
B3 showed a positive rate [1] of about 100%.

B4: Hu012-14 (antibody, IgG1, V domains shown)
VH: EVQLVETGGGLVQPGGSLRLSCAASGFTFSSYGMTWVRQPPGKGLEWVSHISGSGTNTYYADSVKGRFTISRDNSKNTLYLQMNNLGAEDTAVYYCAKLKWGHSGYGDYWGQGTTVTVSS
VL: EIVLTQSPATLSLSPGERATLSCRASQTISRYLAWYQQKPGQAPRLLIYDASNRATGIPARFSGSGSDTDFTLTISSIEPEDFAVYYCQERSNWPQVTFGPGTKLEIK
notes: Full-length IgG1 (AbVec-hIgG1, AbVec-hIgKappa); also called candidate antibody Hu012-14
B4: binds [1].

B5: CD276(Hu012-7)BiTE (bispecific antibody)
chain: DIVMTQSPSSLSTSIGDRVTITCRASQGISNFLAWFQQKPGKAPKSLIYAASRLQSGVPSKFSGSGSGTNFTLTISSLQPEDFATYYCQQYDSYPLTFGGGTKVEIKGGGGSGGGGSGGGGSEVQLVESGGGVVQPGRSLTLSCAASGFTFNGYSMHWVRQAPGKGLEWVAVMSSDGGNKYYADSVKGRFTISRDNSKNTLYLQMNGLRPEDTAVYYCARAVSSGWSLPFDFWGHGTLVTVSSGGGGSQVQLVQSGAEVKKPGASVKVSCKASGYTFTRYTMHWVRQAPGQGLEWMGYINPSRGYTNYNQKFKDRVTITADKSTSTAYMELSSLRSEDTAVYYCARYYDDHYCLDYWGQGTTVTVSSGGGGSGGGGSGGGGSGSEIVLTQSPATLSLSPGERATLSCSASSSVSYMNWYQQKPGKAPKRLIYDTSKLASGVPSRFSGSGSGTDFTLTINSLEAEDAATYYCQQWSSNPFTFGQGTKVEIKR
In the case of B5, the “fold increase in killing the NCI-H292 tumor cell line against control BiTE” value [2] is reported as 1.2 fold and the “fold increase in killing the SK-OV3 tumor cell line against control BiTE” value [2] is reported as 2.1 fold.

B6: Hu012-13 (antibody, IgG1, V domains shown)
VH: EVQLVQSGAEVKKPGASVKVSCKASGYTFTSYGISWVRQAPGQGLEWMGWISAYNGNTNYAQKLQGRVTMTTDTSTSTAYMELRSLRSDDTAVYYCARAPYYGGYDYWGQGTMVTVSS
VL: ETTLTQSPGTLSLSPGDRATLSCRASQSVRSSYLAWYQQKPGQAPRLVIYGASNRAAGIPDRFSGSGSGTDFTLTISGLEPEDFAVYYCQEYGYSLPNTFGQGTKLEIK
notes: Full-length IgG1 (AbVec-hIgG1, AbVec-hIgKappa); also called candidate antibody Hu012-13
B6: binds [1].

B7: Hu012-7-4-1BB-CD3ζ chimeric antigen receptor on lentivirus-transduced T cells (other)
chain: GDYKDDDDKGSEVQLVESGGGVVQPGRSLTLSCAASGFTFNGYSMHWVRQAPGKGLEWVAVMSSDGGNKYYADSVKGRFTISRDNSKNTLYLQMNGLRPEDTAVYYCARAVSSGWSLPFDFWGHGTLVTVSSGGGGSGGGGSGGGGSDIVMTQSPSSLSTSIGDRVTITCRASQGISNFLAWFQQKPGKAPKSLIYAASRLQSGVPSKFSGSGSGTNFTLTISSLQPEDFATYYCQQYDSYPLTFGGGTKVEIKTRTTTPAPRPPTPAPTIASQPLSLRPEACRPAAGGAVHTRGLDFACDIYIWAPLAGTCGVLLLSLVITLYCKRGRKKLLYIFKQPFMRPVQTTQEEDGCSCRFPEEEEGGCELRVKFSRSADAPAYKQGQNQLYNELNLGRREEYDVLDKRRGRDPEMGGKPRRKNPQEGLYNELQKDKMAEAYSEIGMKGERRRGKGHDGLYQGLSTATKDTYDALHMQALPPR
For B7, the “killing efficiency on SKOV3 cells, effector to target ratio 1:1” value [2] was about 30% and the “killing efficiency on SKOV3 cells, effector to target ratio 2:1” value [2] was over 60%.

B8: CD276(Hu012-8)BiTE (bispecific antibody)
chain: NIQMTQSPSSLSASVGDRVTITCRASQTISRYLNWYQQKPGKAPKLLIYAASSLQSGVPSRFSGSGSGADFTLTINTLQPEDFATYYCQQSYRTPQTFGQGTKVEIKGGGGSGGGGSGGGGSQVQLVQSGAEVKKPGASVRVSCKGSGYTFTDHHMYWVRQAPGQGLEWMGRINPNTGVTNYAQKFQGRVSMTRDTSINTVYLELRSLKSDDAAVYYCGRDQVVMVPGVPLDLGMDVWGQGTTVTVSSGGGGSQVQLVQSGAEVKKPGASVKVSCKASGYTFTRYTMHWVRQAPGQGLEWMGYINPSRGYTNYNQKFKDRVTITADKSTSTAYMELSSLRSEDTAVYYCARYYDDHYCLDYWGQGTTVTVSSGGGGSGGGGSGGGGSGSEIVLTQSPATLSLSPGERATLSCSASSSVSYMNWYQQKPGKAPKRLIYDTSKLASGVPSRFSGSGSGTDFTLTINSLEAEDAATYYCQQWSSNPFTFGQGTKVEIKR
In the case of B8, the “fold increase in killing the NCI-H292 tumor cell line against control BiTE” value [2] is reported as 1.2 fold and the “fold increase in killing the SK-OV3 tumor cell line against control BiTE” value [2] is reported as 2 fold.

B9: Hu012-6 (antibody, IgG1, V domains shown)
VH: QMQLVQSGGGLVQPGGSLRLSCAASGFTFSSYWMSWVRQAPGKGLEWVANIKQDGSEKYYVDSVKGRFTISRDNAKNSLYLQMNSLRAEDTAVYYCARSPHYDFWRRDYYYGMDVWGQGTLVTVSS
VL: QSVLTQPPSVSATPGQTVTISCSGSTSNIATNYVSWYQHLPGSAPKLLIYDNNKRPSGIPDRFSGSKSGTSATLDIIGLQTGDEADYYCGVWDPSLTTYVFGTGTQLTAL
notes: Full-length IgG1 (AbVec-hIgG1, AbVec-hIgKappa); also called candidate antibody Hu012-6
B9: binds [3].

B10: Hu012-3 (antibody, IgG1, V domains shown)
VH: QVQLVQSGAEVKKPGESLRISCKGSGYSFTSYWISWVRQMPGKGLEWMGRIDPSDSYTNYSPSFQGHVTISADKSISTAYLQWSSLKASDTAMYYCARHDASGGGPSDYWGQGTLVTVSS
VL: QSVLTQPPSVSAAPGQRVTISCSGSSSNIGDHYVSWYQQLPGTAPKLLIYDNNKRPSGIPDRFSGSKSGTSATLGITGLQTGDEADYYCGTWDSSLSVPNWVFGGGTKVTVL
notes: Full-length IgG1 (AbVec-hIgG1, AbVec-hIgKappa); also called candidate antibody Hu012-3
B10: binds [3].

B11: Hu012-27 (antibody, IgG1, V domains shown)
VH: QVQLVQSGGGVVQPGRSLRLSCAASGFTFSSYAMHWVRQAPGKGLEWVAVISYDGSNKYYADSVKGRFTISRDNSKNTLYLQMNSLRAEDTTVYYCARDRRYYSSMDVWGQGTTVTVSS
VL: QTVVTQEPSFSVSPGGTITLTCGLSSGSVSTSYYPSWYQQTPGQAPRTLIYNTNTRSSGVPDRFSGSILGNKAALTITGAQADDESHYYCALHMDSGSWVFGGGTQLTVL
notes: Full-length IgG1 (AbVec-hIgG1, AbVec-hIgKappa); also called candidate antibody Hu012-27
B11: binds [1].

B12: Hu012-8 (antibody, IgG1, V domains shown)
VH: QVQLVQSGAEVKKPGASVRVSCKGSGYTFTDHHMYWVRQAPGQGLEWMGRINPNTGVTNYAQKFQGRVSMTRDTSINTVYLELRSLKSDDAAVYYCGRDQVVMVPGVPLDLGMDVWGQGTTVTVSS
VL: NIQMTQSPSSLSASVGDRVTITCRASQTISRYLNWYQQKPGKAPKLLIYAASSLQSGVPSRFSGSGSGADFTLTINTLQPEDFATYYCQQSYRTPQTFGQGTKVEIK
notes: Full-length IgG1; also called candidate antibody Hu012-8
B12 gave a positive rate [1] of about 100%.

B13: Hu012-24 (antibody, IgG1, V domains shown)
VH: EVQLVQSGGGLVKPGGSLRLSCAASGFTFSRHSMNWVRQAPGKGLEWVSSISSNDEHIIYADSVKGRFTISRDNSKNTLYLEMNSLRAEDTAVYYCARASRYGGSYYGLDYWGQGTLVTVSS
VL: QTVVTQEPSFSVSPGGTVTLTCGLTSGSVSTTYFPSWYQQTPGQPPRRLIYNTNTRSSGVPDRFSGSIVGIKAALTITGAQAEDESDYYCALYLGSGIVEFGGGTKLTVL
notes: Full-length IgG1 (AbVec-hIgG1, AbVec-hIgKappa); also called candidate antibody Hu012-24
With B13 the positive rate [1] was about 100%.
